Blank lines part the entries; values can stand above or below the molecule they belong to.
Key:
[1] = target: full length recombinant human active CK1 epsilon (CK1ε) (human) (UniProt P49674)
[2] = target: full length recombinant human active CK1 epsilon (CK1ε) (human) (UniProt P49674); remark: listed apart in the source
[3] = target: full length recombinant human active CK1 epsilon (CK1ε) (human) (UniProt P49674); remark: listed apart in the source
[4] = target: full length recombinant human active CK1 epsilon (CK1ε) (human) (UniProt P49674); remark: listed apart in the source

Chain of UniProt P49674 (P49674 whole entry): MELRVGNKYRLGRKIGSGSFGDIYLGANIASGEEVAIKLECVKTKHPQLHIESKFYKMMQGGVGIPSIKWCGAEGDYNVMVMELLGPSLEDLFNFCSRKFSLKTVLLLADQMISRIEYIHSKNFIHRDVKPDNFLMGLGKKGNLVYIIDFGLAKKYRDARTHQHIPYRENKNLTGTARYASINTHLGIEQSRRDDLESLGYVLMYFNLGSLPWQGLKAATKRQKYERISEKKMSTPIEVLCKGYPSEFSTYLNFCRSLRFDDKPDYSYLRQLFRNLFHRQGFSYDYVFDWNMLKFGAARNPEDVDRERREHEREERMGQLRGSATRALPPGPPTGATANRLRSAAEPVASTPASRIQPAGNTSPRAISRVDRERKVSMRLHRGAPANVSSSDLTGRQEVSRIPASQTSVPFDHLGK

Km of CK1ε for DDX3X in the kinase reaction (33P incorporation; DDX3X 0.06-1 μM, ATP fixed at 30 μM, 25 ng CK1ε, 15 min) [1]: 0.2 µM
Km^DDX3X of the kinase reaction at fixed ATP of 15, 30, 60 and 120 μM (0.6, 0.5, 0.7 and 0.7 μM) [2]: 0.7 µM
kcat / Km^DDX3X of the kinase reaction at fixed ATP of 15, 30, 60 and 120 μM (5.5, 8.4, 11.9 and 18.9 min^-1 μM^-1) [2]: 315000 M⁻¹ s⁻¹
Molecule: recombinant human DDX3X wild-type (WT) (from UniProt O00571 1-662) (enzyme)

Km^Casein of the kinase reaction at fixed ATP of 7.5, 15, 30 and 60 μM (4.6, 3.9, 4.8 and 4.0 μM) [3]: 4.8 µM
kcat / Km^Casein of the kinase reaction at fixed ATP of 7.5, 15, 30 and 60 μM (2.5, 4.1, 6.3 and 10.8 min^-1 μM^-1) [3]: 180000 M⁻¹ s⁻¹
Molecule: dephosphorylated native casein mixture (Casein)

Km^Dvl2 of the kinase reaction at fixed ATP of 7.5, 30, 60 and 120 μM (0.5, 1.1, 0.9 and 0.4 μM) [4]: 1.1 µM
kcat / Km^Dvl2 of the kinase reaction at fixed ATP of 7.5, 30, 60 and 120 μM (76.4, 98.8, 159.3 and 261.7 min^-1 μM^-1) [4]: 4.36e+06 M⁻¹ s⁻¹
B1: full length recombinant human disheveled 2 (Dvl2) (natural protein)
chain: MAGSSTGGGGVGETKVIYHLDEEETPYLVKIPVPAERITLGDFKSVLQRPAGAKYFFKSMDQDFGVVKEEISDDNARLPCFNGRVVSWLVSSDNPQPEMAPPVHEPRAELAPPAPPLPPLPPERTSGIGDSRPPSFHPNVSSSHENLEPETETESVVSLRRERPRRRDSSEHGAGGHRTGGPSRLERHLAGYESSSTLMTSELESTSLGDSDEEDTMSRFSSSTEQSSASRLLKRHRRRRKQRPPRLERTSSFSSVTDSTMSLNIITVTLNMEKYNFLGISIVGQSNERGDGGIYIGSIMKGGAVAADGRIEPGDMLLQVNDMNFENMSNDDAVRVLRDIVHKPGPIVLTVAKCWDPSPQAYFTLPRNEPIQPIDPAAWVSHSAALTGTFPAYPGSSSMSTITSGSSLPDGCEGRGLSVHTDMASVTKAMAAPESGLEVRDRMWLKITIPNAFLGSDVVDWLYHHVEGFPERREARKYASGLLKAGLIRHTVNKITFSEQCYYVFGDLSGGCESYLVNLSLNDNDGSSGASDQDTLAPLPGATPWPLLPTFSYQYPAPHPYSPQPPPYHELSSYTYGGGSASSQHSEGSRSSGSTRSDGGAGRTGRPEERAPESKSGSGSESEPSSRGGSLRRGGEASGTSDGGPPPSRGSTGGAPNLRAHPGLHPYGPPPGMALPYNPMMVVMMPPPPPPVPPAVQPPGAPPVRDLGSVPPELTASRQSFHMAMGNPSEFFVDVM

Reference: paper PMC7503845
